In patent US20220324988A1 (NANKAI UNIVERSITY, published 2022):

Key:
[1] = target: T1, human CD40 expressed on cells (human, UniProt P25942 21-277); experiment: cell-based or functional assay
[2] = target: T1, human CD40 expressed on cells; experiment: flow cytometry on 293FT cells expressing human CD40
Method: (§1) Cells expressing Rhesus monkey CD40 and human CD40, respectively, were obtained after 48 h of expression.
(§2) GraphPad Prism 6.0 was used to fit the curves and calculate EC50.

[3] = target: T2, Rhesus monkey CD40 expressed on 293FT cells (Rhesus monkey (Macaca mulatta), UniProt F6SNI1 21-278); experiment: flow cytometry on 293FT cells expressing Rhesus CD40
T2 construct: whole, on cells; also called Rhesus CD40
Method: as §1, §2

[4] = target: T3, human OX40 (Acrobiosystems, OX 0-H5224) (human, UniProt P43489 29-216); experiment: direct ELISA, coated human OX40 1 µg/ml, anti-human Fc-HRP
T3 construct: Bought protein
T3 sequence (looked up): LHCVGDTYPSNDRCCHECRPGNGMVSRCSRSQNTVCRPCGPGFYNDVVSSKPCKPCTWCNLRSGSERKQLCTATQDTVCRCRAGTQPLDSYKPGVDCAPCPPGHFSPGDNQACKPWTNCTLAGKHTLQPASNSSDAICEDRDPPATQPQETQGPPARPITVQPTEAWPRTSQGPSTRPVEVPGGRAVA
Method: (§3) PBS solutions containing 1 μg/ml of human OX40 (Acrobiosystems, OX 0-H5224), 4-1BB (Acrobiosystems, 41B-H5227), GITR (Acrobiosystems, GIR-H5228) and CD40 (Acrobiosystems, CD 0-H5228) were coated on the ELISA plates and incubated overnight at 4° C. […] After 30 mins of incubation at room temperature, washing was carried out for 8 times with 0.05% PBS-Tween.

[5] = target: T4, human 4-1BB (Acrobiosystems, 41B-H5227) (human, UniProt Q07011 24-186); experiment: direct ELISA, coated human 4-1BB 1 µg/ml, anti-human Fc-HRP
T4 construct: Bought protein
Method: as §3

[6] = target: T5, human CD40 recombinant protein (Acrobiosystems, CD 0-H5228) (human, UniProt P25942 21-193); experiment: SPR (Biacore T200), antibody captured on Protein A chip, CD40 as analyte
T5 construct: Bought protein
Method: The antigen to be tested, i.e. human CD40 recombinant protein (Acrobiosystems, CD 0-H5228) was diluted gradiently with a Running buffer (HBS-EP+, GE) at concentrations of 2 μM, 1 μM, 500 nM, 250 nM, 125 nM, 62.5 nM, 31.25 nM. The above-mentioned CD40 with different concentrations was flowed through the chip on which the antibody was captured at a flow rate of 30 μL/min for 120 s of binding, and then the Running buffer was flowed through the chip at a flow rate of 30 μL/min for 240 s, with the antigen dissociating gradually from the chip on which the antibody was captured. Data processing was performed using BIAevaluation software S200, the necessary software of Biacore T200 instrument and binding constants (Ka), dissociation constants (Kd), and equilibrium dissociation constants (KD) were calculated.

[7] = target: T5, human CD40 recombinant protein …; experiment: direct ELISA, coated human CD40 1 µg/ml, anti-human Fc-HRP
Method: The antibodies were incubated at room temperature for 30 min, and washed 8 times with 0.05% PBS-Tween.

T1 sequence (P25942 21-277): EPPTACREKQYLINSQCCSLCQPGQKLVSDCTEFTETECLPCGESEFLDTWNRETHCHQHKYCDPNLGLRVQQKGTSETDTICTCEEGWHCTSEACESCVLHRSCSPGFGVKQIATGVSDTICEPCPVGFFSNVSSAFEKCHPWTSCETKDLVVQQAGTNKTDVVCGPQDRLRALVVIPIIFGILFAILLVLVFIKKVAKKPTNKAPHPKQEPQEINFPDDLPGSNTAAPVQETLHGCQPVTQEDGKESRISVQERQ
T5 sequence (P25942 21-193 limits assumed): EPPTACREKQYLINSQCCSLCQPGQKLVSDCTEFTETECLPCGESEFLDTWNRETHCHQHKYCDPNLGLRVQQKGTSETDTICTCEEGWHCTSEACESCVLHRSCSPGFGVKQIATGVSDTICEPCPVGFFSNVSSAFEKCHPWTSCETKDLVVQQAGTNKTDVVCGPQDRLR
T4 sequence (Q07011 24-186): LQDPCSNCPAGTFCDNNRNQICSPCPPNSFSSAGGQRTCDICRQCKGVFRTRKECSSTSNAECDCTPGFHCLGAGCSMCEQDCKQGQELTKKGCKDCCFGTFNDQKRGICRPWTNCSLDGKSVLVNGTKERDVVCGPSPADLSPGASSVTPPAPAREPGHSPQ

B1: NK003-AM-18 (antibody, human IgG1, kappa, V domains shown)
VH: not shown
VL: DVVMTQSPLSLPVTPGESATISCRSSQSLLYSNGYNYLDWYLLKPGQSPQLLIYLGSNRASGVPDRFSGSGSGTDFTLKISRVEAEDVGLYYCMQQLEQPYTFGQGTKLEIKR
[1]
  EC50 of activation of the NF-kB-GFP+hCD40 reporter cell line, cross-linked with goat anti-human Fc: 0.3 nM
  fold improvement of reporter cell activity against wild type NK003: ~10 times

B2: NK003-AM-9 (antibody, human IgG1, kappa, V domains shown)
VH: not shown
VL: DVVMTQSPLSLPVTPGESATISCRSSQSLLYSNGYNYLDWYLLKPGQSPQLLIYLGSNRASGVPDRFSGSGSGTDFTLKISRVEAEDVGLYYCMNGLEVPYTFGQGTKLEIKR
[1]
  EC50 of activation of the NF-kB-GFP+hCD40 reporter cell line, cross-linked with goat anti-human Fc: 0.25 nM
  fold improvement of reporter cell activity against wild type NK003: ~10 times

B3: NK003-AM-18-EP1 (antibody, human IgG1, kappa, V domains shown)
VH: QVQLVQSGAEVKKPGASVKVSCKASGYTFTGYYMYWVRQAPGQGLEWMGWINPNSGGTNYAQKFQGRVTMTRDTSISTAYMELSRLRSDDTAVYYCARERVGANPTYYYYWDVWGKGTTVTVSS
VL: DVVMTQSPLSLPVTPGESATISCRSSQSLLYSNGYNYLDWYLLKPGQSPQLLIYLGSNRASGVPDRFSGSGSGTDFTLKISRVEAEDVGLYYCMQQLEQPYTFGQGTKLEIKR
[1]
  EC50 of activation of the NF-κB-GFP+hCD40 reporter cell line, cross-linked with goat anti-human Fc: 0.35 nM

B4: NK003 (antibody, human IgG1, kappa, V domains shown)
VH: not shown
VL: DVVMTQSPLSLPVTPGESATISCRSSQSLLYSNGYNYLDWYLLKPGQSPQLLIYLGSNRASGVPDRFSGSGSGTDFTLKISRVEAEDVGLYYCMQGLETPYTFGQGTKLEIKR
notes: also called antibody NK003; wild type NK003
[2]
  EC50: 10 nM
[1]
  EC50 of activation of the NF-κB-GFP+hCD40 reporter cell line, cross-linked with goat anti-human Fc: 2 nM
  EC50 of apoptosis of Raji cells (CD95 expression, MFI), cross-linked with goat anti-human Fc: 2.6 nM
  EC50 of apoptosis of Ramos cells (CD95 expression, MFI), cross-linked with goat anti-human Fc: 3 nM
[3]
  EC50: 8 nM
[4]
  binding result: no binding
[5]
  binding result: no binding
[6]
  Kd: 331 nM
  koff: 0.0121 s⁻¹
  kon: 36700 M⁻¹ s⁻¹

B5: NK004 (antibody, human IgG1, kappa, V domains shown)
VH: QVQLVESGGGLVQPGRSLRISCAGSGFTFGDSAMHWVRQAPGKGLEWVSGISRNSDTIVYADSVKGRFTISRDNAKNSLYLQMNSLRAEDTALYYCARRSGDHHAMDVWGPGTTVTVSS
VL: ETTLTQSPATLSLSPGERATLSCRASQSVNTYLAWYQQKPGQAPRLLMYDSSSRATGIPDRFSGSGSGTDFTLTISRLEPEDFAVYYCQQYSTVPLTFGGGTKLEIKR
notes: also called antibody NK004
[7]
  EC50 (read off the curve): ~0.7 nM
[1]
  EC50 of activation of the NF-κB-GFP+hCD40 reporter cell line, with the addition of the secondary antibody: 4 nM
[6]
  Kd: 440 nM
  koff: 0.039 s⁻¹
  kon: 88700 M⁻¹ s⁻¹

B6: HEL (antibody, human IgG1, kappa, V domains shown)
VH: EVQLEQSGAELMKPGASVKISCKATGYTFTTYWIEWIKQRPGHSLEWIGEILPGSDSTYYNEKVKGKVTFTADASSNTAYMQLSSLTSEDSAVYYCARGDGFYVYWGQGTTLTVSS
VL: DIELTQSPATLSVTPGDSVSLSCRASQSISNNLHWYQQKSHESPRLLIKYTSQSMSGIPSRFSGSGSGTDFTLSINSVETEDFGVYFCQQSGSWPRTFGGGTKLDIKR
notes: IgG1 negative control antibody; also called negative control HEL; HEL control antibody
[7]
  binding result: no binding (tested: 500 nM)
